Source: US20050100554A1 (published 2005)

B2: Human papillomavirus 16 E2 (other)
chain: METLCQRLNVCQDKILTHYENDSTDLRDHIDYWKHMRLECAIYYKAREMGFKHINHQVVPTLAVSKNKALQAIELQLTLETIYNSQYSNEKWTLQDVSLEVYLTAPTGCIKKHGYTVEVQFDGDICNTMHYTNWTHIYICEEASVTVVEGQVDYYGLYYVHEGIRTYFVQFKDDAEKYSKNKVWEVHAGGQVILCPTSVFSSNEVSSPEIIRQHLANHPAATHTKAVALGTEETQTTIQRPRSEPDTGNPCHTTKLLHRDSVDSAPILTAFNSSHKGRINCNSNTTPIVHLKGDANTLKCLRYRFKKHCTLYTAVSSTWHWTGHNVKHKSAIVTLTYDSEWQRDQFLSQVKIPKTITVSTGFMSI
notes: also called HPV 16 E2; cbe_251088
B3: Human papillomavirus 16 E7 (other)
chain: MHGDTPTLHEYMLDLQPETTDLYCYEQLNDSSEEEDEIDGPAGQAEPDRAHYNIVTFCCKCDSTLRLCVQSTHVDIRTLEDLLMGTLGIVCPICSQKP
notes: also called HPV 16 E7; HPV16 E7

Assays:
[1] = target: B3; test: Y2H; INT ID 169
[2] = target: T1, Human Papillomavirus 1a L2 (Human Papillomavirus 1a, UniProt P03105 1-507); test: Y2H; INT ID 146
T1 construct: also called HPV 1a L2; cbe_252041
T1 sequence: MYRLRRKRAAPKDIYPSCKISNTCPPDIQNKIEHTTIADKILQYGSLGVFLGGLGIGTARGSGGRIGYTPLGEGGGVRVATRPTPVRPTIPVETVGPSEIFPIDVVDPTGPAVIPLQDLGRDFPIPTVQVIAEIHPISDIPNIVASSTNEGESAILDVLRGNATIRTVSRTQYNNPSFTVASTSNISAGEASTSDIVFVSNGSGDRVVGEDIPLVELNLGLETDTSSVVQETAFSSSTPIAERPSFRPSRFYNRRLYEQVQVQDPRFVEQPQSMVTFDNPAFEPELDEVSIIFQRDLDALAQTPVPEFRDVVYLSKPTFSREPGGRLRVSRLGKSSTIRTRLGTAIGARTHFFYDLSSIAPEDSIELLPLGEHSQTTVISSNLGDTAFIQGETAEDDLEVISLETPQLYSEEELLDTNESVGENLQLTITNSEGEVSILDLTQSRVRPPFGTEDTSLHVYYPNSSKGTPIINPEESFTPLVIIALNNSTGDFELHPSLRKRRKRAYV

EFEMP1 = target: T2, EFEMP1 (human, UniProt Q12805 18-493); test: Y2H; INT ID 147
T2 construct: also called cbe_2321057
T2 sequence: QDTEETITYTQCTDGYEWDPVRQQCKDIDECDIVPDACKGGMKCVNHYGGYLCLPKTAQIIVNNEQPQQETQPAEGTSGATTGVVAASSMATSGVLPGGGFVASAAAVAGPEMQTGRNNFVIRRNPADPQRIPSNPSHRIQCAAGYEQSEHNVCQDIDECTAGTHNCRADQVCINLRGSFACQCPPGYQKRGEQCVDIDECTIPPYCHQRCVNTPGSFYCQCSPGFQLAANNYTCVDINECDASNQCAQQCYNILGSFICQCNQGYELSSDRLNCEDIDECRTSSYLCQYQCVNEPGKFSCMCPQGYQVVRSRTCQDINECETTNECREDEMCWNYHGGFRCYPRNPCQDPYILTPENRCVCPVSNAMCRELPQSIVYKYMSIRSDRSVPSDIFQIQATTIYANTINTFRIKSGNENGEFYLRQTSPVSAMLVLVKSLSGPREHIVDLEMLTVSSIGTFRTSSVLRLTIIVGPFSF

keratin 4 = target: T3, keratin 4 (human, UniProt P19013 1-520); test: Y2H; INT ID 168
T3 construct: also called KRT4; cbe_3474077
T3 sequence (P19013 other isoform, or with tags, fused parts or gaps limits assumed): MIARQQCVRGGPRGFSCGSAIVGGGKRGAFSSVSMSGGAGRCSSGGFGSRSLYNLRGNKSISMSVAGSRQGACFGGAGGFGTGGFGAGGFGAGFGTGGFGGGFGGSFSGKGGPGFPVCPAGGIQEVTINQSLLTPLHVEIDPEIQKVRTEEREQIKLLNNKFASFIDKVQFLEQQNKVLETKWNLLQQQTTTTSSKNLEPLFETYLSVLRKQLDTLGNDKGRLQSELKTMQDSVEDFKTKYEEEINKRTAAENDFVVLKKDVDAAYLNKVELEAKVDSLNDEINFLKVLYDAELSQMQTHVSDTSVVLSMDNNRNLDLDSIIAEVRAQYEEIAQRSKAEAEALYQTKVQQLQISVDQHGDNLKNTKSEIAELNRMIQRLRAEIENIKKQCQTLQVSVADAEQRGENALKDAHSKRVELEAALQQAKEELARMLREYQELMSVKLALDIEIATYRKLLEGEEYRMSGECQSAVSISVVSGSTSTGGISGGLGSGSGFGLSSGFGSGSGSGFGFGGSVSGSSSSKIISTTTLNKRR

[3] = target: T4, zinc finger protein ZNF140-like protein (human, UniProt Q9NR11 1-478); test: Y2H; INT ID 170
T4 construct: also called LOC55828; cbe_3787129
T4 sequence (Q9NR11 whole entry): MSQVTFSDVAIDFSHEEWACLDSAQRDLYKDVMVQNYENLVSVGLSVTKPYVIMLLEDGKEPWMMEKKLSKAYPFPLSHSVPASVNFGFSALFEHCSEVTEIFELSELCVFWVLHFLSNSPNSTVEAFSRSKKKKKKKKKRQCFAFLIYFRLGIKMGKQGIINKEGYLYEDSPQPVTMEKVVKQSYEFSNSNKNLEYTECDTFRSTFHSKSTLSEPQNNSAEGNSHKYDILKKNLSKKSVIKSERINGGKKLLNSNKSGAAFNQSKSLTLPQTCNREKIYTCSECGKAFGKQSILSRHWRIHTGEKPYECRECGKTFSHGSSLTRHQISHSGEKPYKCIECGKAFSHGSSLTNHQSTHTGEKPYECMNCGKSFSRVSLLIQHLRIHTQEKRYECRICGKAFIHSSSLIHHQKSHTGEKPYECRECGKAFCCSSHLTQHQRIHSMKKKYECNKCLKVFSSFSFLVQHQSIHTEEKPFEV

[4] = target: T5, tissue factor pathway inhibitor (lipoprotein-associated coagulation inhibitor) (human, UniProt P10646 29-304); test: Y2H; INT ID 172
T5 construct: also called TFPI; cbe_3834015
T5 sequence: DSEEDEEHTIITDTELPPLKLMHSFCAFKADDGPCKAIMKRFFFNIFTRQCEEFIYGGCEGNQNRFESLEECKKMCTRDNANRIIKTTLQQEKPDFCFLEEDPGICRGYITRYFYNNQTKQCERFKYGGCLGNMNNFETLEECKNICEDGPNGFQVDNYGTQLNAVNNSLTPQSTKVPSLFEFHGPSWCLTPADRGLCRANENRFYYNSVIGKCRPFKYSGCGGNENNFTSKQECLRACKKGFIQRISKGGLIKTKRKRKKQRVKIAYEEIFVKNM

MPP3 = target: T6, MPP3 (human, UniProt Q13368 1-585); test: Y2H; INT ID 173
T6 construct: also called cbe_3921620
T6 sequence: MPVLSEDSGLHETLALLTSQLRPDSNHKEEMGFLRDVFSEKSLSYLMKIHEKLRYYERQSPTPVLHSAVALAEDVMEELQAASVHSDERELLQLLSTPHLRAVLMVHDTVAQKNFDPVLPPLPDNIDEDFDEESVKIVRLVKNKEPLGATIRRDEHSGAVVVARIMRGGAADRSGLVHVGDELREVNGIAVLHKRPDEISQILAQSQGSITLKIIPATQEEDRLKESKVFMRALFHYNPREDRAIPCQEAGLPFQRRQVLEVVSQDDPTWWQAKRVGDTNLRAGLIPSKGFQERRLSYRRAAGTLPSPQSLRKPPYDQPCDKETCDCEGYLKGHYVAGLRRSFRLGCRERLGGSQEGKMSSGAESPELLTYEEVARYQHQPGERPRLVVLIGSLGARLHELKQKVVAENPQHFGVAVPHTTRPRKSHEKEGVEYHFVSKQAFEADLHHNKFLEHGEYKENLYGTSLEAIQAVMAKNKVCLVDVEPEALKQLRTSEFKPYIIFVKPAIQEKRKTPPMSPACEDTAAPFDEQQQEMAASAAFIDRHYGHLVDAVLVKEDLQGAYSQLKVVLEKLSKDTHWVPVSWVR

PTPN21 = target: T7, PTPN21 (human, UniProt Q16825 1-1174); test: Y2H; INT ID 174
T7 construct: also called cbe_4260642
T7 sequence: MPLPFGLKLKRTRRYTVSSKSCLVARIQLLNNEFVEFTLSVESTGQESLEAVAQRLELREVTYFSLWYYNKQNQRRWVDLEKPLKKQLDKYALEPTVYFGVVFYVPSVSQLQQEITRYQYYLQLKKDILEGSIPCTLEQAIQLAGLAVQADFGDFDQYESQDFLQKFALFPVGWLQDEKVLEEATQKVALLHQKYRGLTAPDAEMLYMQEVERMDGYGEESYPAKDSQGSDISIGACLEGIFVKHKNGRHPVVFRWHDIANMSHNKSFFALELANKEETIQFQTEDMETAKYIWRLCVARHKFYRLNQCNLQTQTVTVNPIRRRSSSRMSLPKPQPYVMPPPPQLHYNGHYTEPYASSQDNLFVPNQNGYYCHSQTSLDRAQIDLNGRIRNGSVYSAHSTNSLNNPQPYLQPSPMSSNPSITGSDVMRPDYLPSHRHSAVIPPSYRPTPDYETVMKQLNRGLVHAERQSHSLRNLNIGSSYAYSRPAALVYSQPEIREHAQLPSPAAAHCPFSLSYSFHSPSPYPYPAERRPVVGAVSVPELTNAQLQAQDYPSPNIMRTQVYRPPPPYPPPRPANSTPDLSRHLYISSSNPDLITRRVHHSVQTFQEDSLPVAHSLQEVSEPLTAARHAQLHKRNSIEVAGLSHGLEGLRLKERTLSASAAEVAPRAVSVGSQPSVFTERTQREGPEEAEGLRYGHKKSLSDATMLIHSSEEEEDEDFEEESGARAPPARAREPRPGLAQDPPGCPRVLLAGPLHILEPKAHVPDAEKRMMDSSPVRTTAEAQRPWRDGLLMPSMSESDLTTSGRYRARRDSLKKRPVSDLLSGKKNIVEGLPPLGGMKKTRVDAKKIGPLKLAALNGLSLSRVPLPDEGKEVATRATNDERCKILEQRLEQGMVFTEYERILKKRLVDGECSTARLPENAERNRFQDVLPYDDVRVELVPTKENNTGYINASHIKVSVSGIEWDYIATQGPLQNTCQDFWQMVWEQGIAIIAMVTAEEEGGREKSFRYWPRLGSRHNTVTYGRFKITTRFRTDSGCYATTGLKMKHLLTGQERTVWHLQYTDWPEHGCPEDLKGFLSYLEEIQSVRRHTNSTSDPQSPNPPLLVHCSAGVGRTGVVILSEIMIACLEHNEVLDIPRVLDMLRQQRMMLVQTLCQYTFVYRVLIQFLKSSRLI

NDUFS3 = target: T8, NDUFS3 (human, UniProt O75489 37-264); test: Y2H; INT ID 176
T8 construct: also called cbe_4268611
T8 sequence (O75489 37-264 limits assumed): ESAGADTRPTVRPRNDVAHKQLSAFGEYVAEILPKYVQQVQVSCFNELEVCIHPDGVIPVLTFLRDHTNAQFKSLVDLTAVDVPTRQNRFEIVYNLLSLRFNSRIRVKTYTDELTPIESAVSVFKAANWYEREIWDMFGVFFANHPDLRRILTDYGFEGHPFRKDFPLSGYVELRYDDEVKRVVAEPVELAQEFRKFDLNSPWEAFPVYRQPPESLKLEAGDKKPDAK

PSMC1 = target: T9, PSMC1 (human, UniProt P62191 2-440); test: Y2H; INT ID 179
T9 construct: also called proteosome 26S subunit; proteosome subunit PMSC1
T9 sequence (P62191 2-440 limits assumed): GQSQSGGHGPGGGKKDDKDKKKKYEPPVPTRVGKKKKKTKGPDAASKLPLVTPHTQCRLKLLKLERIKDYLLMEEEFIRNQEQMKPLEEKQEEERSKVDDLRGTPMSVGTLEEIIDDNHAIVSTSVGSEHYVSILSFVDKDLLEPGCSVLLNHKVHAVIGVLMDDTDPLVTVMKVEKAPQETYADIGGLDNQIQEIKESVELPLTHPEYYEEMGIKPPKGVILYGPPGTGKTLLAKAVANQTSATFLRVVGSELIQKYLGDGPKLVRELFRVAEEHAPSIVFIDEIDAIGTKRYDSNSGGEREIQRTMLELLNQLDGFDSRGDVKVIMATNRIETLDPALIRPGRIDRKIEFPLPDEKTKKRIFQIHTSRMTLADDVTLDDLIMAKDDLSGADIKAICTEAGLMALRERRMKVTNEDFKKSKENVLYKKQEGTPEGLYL

STX4A = target: T10, STX4A (human, UniProt Q12846 1-297); test: Y2H; INT ID 181
T10 construct: also called syntaxin 4; cbe_4270186
T10 sequence: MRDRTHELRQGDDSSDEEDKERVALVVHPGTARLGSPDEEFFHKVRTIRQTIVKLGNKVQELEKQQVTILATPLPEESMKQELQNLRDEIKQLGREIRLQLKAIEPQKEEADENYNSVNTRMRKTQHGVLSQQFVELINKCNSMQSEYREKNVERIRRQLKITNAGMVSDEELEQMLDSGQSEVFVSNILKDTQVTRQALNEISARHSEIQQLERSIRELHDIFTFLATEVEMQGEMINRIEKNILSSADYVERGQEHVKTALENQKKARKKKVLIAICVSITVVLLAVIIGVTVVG

[5] = target: B2; test: Y2H; INT ID 151
[6] = target: B2; test: Y2H; INT ID 150

B1: eukaryotic translation elongation factor 1 alpha 1-like 14 (other)
chain: MQSERGITIDISLWKFETSKYYVTIIDAPGHRDFIQNMITGTSQADCAVLIVAAGVGEFEAGISKNGQTREHALLAYTLGVKQLIVGVNKMDSTEPPYSQKRYEEIVKEVSTYIKKIGYNPDTVAFVPISGWNGDNMLEPSANMPWFKGWKVTRKDGNASGTTLLEALDCILPPTRPTDKPLGLPLQDVYKIGGIGTVPVGRVETGVLKPGMVVTFGPVNVTTEVKSVEMHHEALGEALPGDNVGFNVKNVSVKDVRRGNVAGDSKNDPPMEAAGFPAQVIILNHPGQISAGYAPVLDCHTAHIACKFAELKEKIDRRSGKKLEDGPKFLKSGDAAIVDMVPGKPMCVESFSDYPPLGCFAVRDMRQTVAVGVIKAVDKKAAGAGKVTKSAQKAQKAK
notes: also called EEF1A1L14; cbe_3773649
binding result [1]: binds

B2
binding result [2]: binds
binding result (EFEMP1): binds

B3
binding result (keratin 4): binds
binding result [3]: binds
binding result [4]: binds
binding result (MPP3): binds
binding result (PTPN21): binds
binding result (NDUFS3): binds
binding result (PSMC1): binds
binding result (STX4A): binds

B4: soggy-1 gene (other)
chain: APIHDADAQESSLGLTGLQSLLQGFSRLFLKGNLLRGIDSLFSAPMDFRGLPGNYHKEENQEHQLGNNTLSSHLQIDKMTDNKTGEVLISENVVASIQPAEGSFEGDLKVPRMEEKEALVPIQKATDSFHTELHPRVAFWIIKLPRRRSHQDALEGGHWLSEKRHRLQAIRDGLRKGTHKDVLEEGTESSSHSRLSPRKTHLLYILRPSRQL
notes: also called DKKL1-pending; cbe_4279962
binding result [5]: binds

B5: DAD1 (other)
chain: SASVVSVISRFLEEYLSSTPQRLKLLDAYLLYILLTGALQFGYCLLVGTFPFNSFLSGFISCVGSFILAVCLRIQINPQNKADFQGISPERAFADFLFASTILHLVVMNFVG
notes: also called cbe_4268208
binding result [6]: binds
